The results in this text go back to the domain aggregation screens of Martell et al. (2025).

The nature of this data set: soluble fraction after stress (log2 fold change); higher = more stays soluble; pooled small domains, quantitative proteomics. The conditions noted are these: stress: 50 degC. The method, boiled down:
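The stress applied to every library was 50°C. These custom libraries of small protein domains were pooled and measured at high throughput with quantitative proteomics as the read-out. Aggregation propensity is expressed as the base-two logarithm of the fold change in how much of each protein remains soluble. The higher the value, the more of that protein stays in solution.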

“HMSINISFEPADHLGKDVIFIRFPYDNEWIQRVRKLKGAKWSQSQRAWHVPDTEHYRTLFQLPQKI”: the “soluble fraction (log2)” value is -2.6. As to “HMKTGNIITVSLVWKGKYYMIRMFFPSASRPTRSDVQNEIEKVYPGSKLSTFSVSDYEPGQPLLQV”, the “soluble fraction (log2)” value is -1.16. Next, “HMDQPLIEPLSERELEVLSLIAAGYSNAEIAERLVIAVGTVKRHINNLYGKLGAGSRTQALAIAREIGLM”: 0.0589; “HMRGPPQVLVDVELEDGRVGQIGVRNGDDATELAETFVRAFRLEQSFVGRLANVIQGKIRELLHSQ”: -0.889; “HMRIWTPEMIKEYIISSNGKEPLNSHYYSTNHPSIYAAAERIFGSWGNAINAAGLDYNAIRKYK”: -0.00482. Next, “HMENIIKISASYEGLRVDQFLSNYLKISRSKVQKYISEEKIFLNNVPTKTNRKVKLDDIISYNLNF”: -3.01; “HMELEQLKSQLTGFLKANREQIFTAQNLADGLRMTDSQGYKQVVNALNASVRDGDVIDIKNGYQYNKN”: 0.0729; “HMENSYSVEDLALKAAISVDTIRYYQGLGLISPPQKNGRRAIYGNDHISRLEEIKKLAFEGFSLRQISLL”: -0.224. Next, “HMSRVSVDGEEVNFEGEIPDDPSRIYELLMGALSEQSRVVVKFFVDGKDALLDEGFPSRYQMIEAESV”: -0.285; “HMGGTFLVRILDPALNIRAQPSLTARINGVIRDKSVYTIVATSFEPKTQITWGKLKSGAGWISIGSKYVKK”: -3.52. As to “HMTVGEKIQYYRKKIGLSQEELGQKMLLSRQTISLWEMDKTLPTVDNLLRLKEIFSVSIDELLSENEPK”, the “soluble fraction (log2)” value is 0.013. Next, “HMEAELNSLVKTYENMKPKAAAQVFEELDMDVLLDVVERMKEKKLAPILAQVTPTRAKEITYELTQRR”: 0.0638; “HMVEELDVQFIKLTVQGDHPWKNKKIRELSIPWDLLFVLIIRGDKSIIPNGKTTIKDGDIVVVSAPEYRG”: -0.676. In the case of “HMYTEIDDVKDLLSKIPSVNKLTTADRGMVQAARNAYDALDEDQKLYITIADVEKFNAAVEWMEEH”, the “soluble fraction (log2)” value amounted to 0.0056. As for “HMSQLVTGVLRNLNDISEKIAAGKAVPEMLGRLENMQQMIANLKGNEGLIKSISILTRSAQDALR”, the “soluble fraction (log2)” value was 0.00825. Next, “HMKKYLNIYNIIVNKIESKEYQSNDKLPSEKELMDQYNVSRDTVRKSLNMLEQNGYIQKTKGKGSFVLDIN”: -0.634. Consider “HMTPAKQVSAKAERWIDQLGSSDWEKREEAAAELKKLGGAAKSALEKALKNADPEVASKAEELLEALES”, for which the “soluble fraction (log2)” value came to 0.0311. As for “HMSSLDTLTARETQILAEMAQGKNNAAIAAAVSVSERAVEKHTNSIFAKLGLSEEKDVNRRVMAVLLFLGR”, the figure is -3.28; as for “HMQARLPFSFAKRHGVILLAATGEGQSDVIYKSGFDIGALAEVRRFVAGEIALKEVDGPSFDRQLTLTYQN”, -1.77; as for “HMNDELMEQIDEWHKAEKHQEIIDALEQIPEAERDFETTGFLARAYNNIEEYAKAADLLESVRE”, 0.0873. Next, “HMDDNRSLSDLAQQVFKRENIQVSRDTLSLLVSRLGSDRAVSRQEIEKLALFAGSNGKLTEEDIHNALG”: 0.192; “HMRNMVSVLDHIEGIGPKRRQLLYEHYGELEKIKEASVEEMAGLDGMNRPAAEAVYNFFLAQRNL”: 0.0507.

For “HMNHHEIIMKNIDTLLKEKNISISKLEKSLGISNGYISRLRNGKYNFSLDLLLKLAKKFKISIDYLLTDFD”, the “soluble fraction (log2)” value is 0.00249. Next, “HMGIRDIHITVNGESLKLSKKQNYIFVDIFDFYPFDLSILGGSKLITTINGEQAEFTSPLKDGDVVELYWK”: -0.61.

Regarding “HMSERQTGTVKWFNNAKGFGFITMADRPDDIFVHFRAIQGDGYRSLNEGEEVEFSLVEGPKGLQAEEVTK”, the “soluble fraction (log2)” value is 0.037.

On to “HMANYYEILGVKHDATEAEIKAAYKQAAKSAHPDAGGSNEKMQEVNAAWEVLGNAQKRAEYDARMA”, for which the “soluble fraction (log2)” value worked out at 0.0756. Next, “HMEPDEESVRLKEEILSRIDYWHTTMPYMGTRKLAAKLRTEGYAVGRKLVRTYMREMGIHAVYP”: -0.132; “HMNDIDRFIEALIEQDTLPGTNSRINEDVISEMKMMTSVEDIKAYAIATVGLTGGQVNNALINSGL”: -0.0823.

Turning to “HMLVGRDPQALILGSMPSEKSLEEDEYYAHPRNRFWSLMNWLLAGNKTRPAYKTGIEILSSHGIALWV”, the “soluble fraction (log2)” value was -0.263. As for “HMEQWVSIEVEPGIRLDVALTEATQKSRSFIQNLIAEQRVLVNGQPKKANYKVRPGDHVELNYPEPT”, the figure is 0.0849. As for “HMKGILVPASSIISDGDKNYVWTVEKGKAKKVEVTLGNADAENQEISSGLTKDSKVITNPTDSLKDGQEV”, the figure is 0.162; as for “HMRPRGTRLPTGWTPSSDALDWTKAEKPGLDPLQTLEKFRDYWTAQPGQKGVKTDWDATWRNWVRREIP”, 0.172; as for “HMLDIQKKGENIAYIEGAGDVIPESLKQIGYHVVTIAPKDINAETLSRFDAVVVGIRAYNTVEDL”, -0.244. Next, “HMDSVPEEQLRQLALDKAKEVKRWGQPVELAKMNAHDRRIIHINLQDDPEIETRSEGEGALKSVIISLKK”: 0.172; “HMSWEELLEHLEKAAERGEEVRIAGVTLHDEEDFKRALRWLKEWL”: -1.93; “HMIMNDIQAKVLEIAETKDLGSITYYRLSKMLGVDHPYRVKYAIDKLIEKGLLTAKSDGSITKAI”: -0.601. Take “HMLVVEPSAELKTIIDKTASFVARNGPEFEARIKNEQNNAKFSFLQPNDPFNPYYRAKIVELGGTV”: the “soluble fraction (log2)” value came to 0.0591. Next, “HMGKELTVPDVVGQNYVSAQEKLIAGGFQVEVADSVYDSRYGRGVVVDQNPHKDTRVKPGRLIYVTVNA”: -0.0999.

Consider “HMTNSAGIERFLASGAIDGVGPAMARRIVEHFGTEALRIIESVPHRLREISGIGPKTAEKIASSYMRQ”, for which the “soluble fraction (log2)” value was -0.689. As for “HMIAAPFVVKDIRVDGVQPATGEAIISSLPVKVGQTATDADVSNVVRQLFSLNRFQNVQATREGNTLVIKV”, the figure is 0.0499; as for “HMINNINKLPETQFIKLFANIFENSQFIAVALYKKKGDGFSDFKDLINKIMDIFENTTKEKKLKILNA”, -0.0982. As for “HMPPGQIVNEALQRAGNSTPTGTAISAQDDIKLYTSALAELATQGDTSSASVAKLREALQTAQVAFYNAV”, the figure is 0.0769; as for “HMEDQITNQQFTMTKQSILDLLVKKSYPPYELANELHLKKEEVLPIIRFLIAENEIHFKDGMLHLPH”, -0.167; as for “HMISRKIKELRLSHDLTQKDLADYLNLTPKMVSFYELGQRVPPSDIILKLAEKFHVSTDYLLGNEDRP”, -0.0279. As to “HMSMPTITLQHYKRGSHYYASIIETFRDPVTRKNSSRTLEALGDISEKMKEDPNYLQSLKDRVKALRSD”, the “soluble fraction (log2)” value is -0.656. Next, “HMGQLVYPAGVYDVNKSYITDSNSAPYVLDKTDNNYYVLNTQMTWKGTEQDNKTPSQSYEESGGSVWLLFD”: -0.235. As to “HMTKRTVKSVARKIADFNRERHRMPTYEEMLTLLAVRSKSVVHFWMNKLLQEGILEKDESGHLTFV”, the “soluble fraction (log2)” value was -0.124. As for “HMADNILPAQTDAIKALATENGFSNESLEKYLIENYGTTIYGLSRNQGIQIINLFQSENPPKP”, the figure is 0.144; as for “HMHSEEAALLHRYIDSLEEPQHTVVVMRDIGGYSFEEIASVVQLKEAHIWMILSRARRKLRELYIKTMDHH”, 0.138. Next, “HMLESVMHSRIAEIISREGTAPAHMSMQEKIRVVHKLDADGILMMKGAVAEIADQLSVSVPTIYRYLNKPQ”: -1.8; “HMSDYKSYLQELVQTDKKSLSYNVVKETGPAHDKTFEVEVEVDGIIYAHGVGKSKKEAEQNAAKNAIMISA”: 0.149; “HMVDLEINGRQTLQFVANKYGIPVEKLATDLNIPSDRFGEKLGRLRRQYAFTMNDVRKSILKNK”: 0.00739. On to “HMWAQSVSLHGLLGRQALLIVDGKPPRAVAPGQTHLGVTVLSTDEDRAVVALAGGQRLTLRVGESPVSVG”, for which the “soluble fraction (log2)” value is -0.0812. As for “HMLDYKSALQELLQAQRRSRPRYEVISTEGPDHERVFEVAVWLDNEELGRGKGRSKREAEHQAAQAALTQL”, the figure is 0.068. In the case of “HMKYNYEAQQSDELSLVKGSRIHVLEKSSDGWWKGEIDNVVGWFPS”, the “soluble fraction (log2)” value is -0.205.

For “HMSEPRYRQLATILAQEIRSNHSAGDQLPSEQALAKRFEVNRHTVRRAVDELVAAGMVTRHQGWGTQVV”, the “soluble fraction (log2)” value is -0.0244. As for “HMVQVRQPAGAGDLFAKGRLHLSTGTIHTVKPLEVDLPKGRLTVVTGVSGSGKTTLILESLLPALAAAAA”, the figure is 0.482; as for “HMAQRAADEARTHEILGLLRQARAALDHGGTARAARLRASIAEKLPAAPALPAWFARQLEQVDSQLAELQD”, -0.432.

Consider “HMTPQDYEYLRKLLKDQSGLDLSVDKQYLLESRLVPLSRKAGLAGIPELVQKMKAGSASLTAQVVEAMTT”, for which the “soluble fraction (log2)” value came out at 0.00429. Next, “HMGRLPMNIVRAIVEHLDRHASYSEINRATGASKGFISKVAAAVEAASLTPEKFLLLNDEDIQNRITPGR”: -0.234. As for “HMSPTDKATVNVYALNVRTGPGTNYKVLGSVIKGTELQVLGSSGKWLKVKYGNREAYVAGWLVK”, the figure is -1.62. As for “HMSNLLKNILDVLEKEGPLKARKIALLLDSTRTTITHTTINSELYKALDLEGLTKNEQNIWSYVT”, the figure is 0.00627. “HMKQTMIVVMEKDAPQSQIDDMVKRIEGLGLKAHTIVGTQRTVVAAIGEKREDTRESLAGSPGVAEVVPIL”: the “soluble fraction (log2)” value came out at 0.181. As for “HMSNEVSYSDFVRSVESDEVNAVTLDGEQIRFVGNDGQTYSVIKPADAQITQLLIDNNVTVRAEQQ”, the figure is 0.0224; as for “HMTYSAWIEKAYSELEKKGITEAELSDALDKRGINLEDLKLMGPDEAVKYQSEVEGVVLELSKSKE”, -0.0868.

With “HMVIVGGDVIVHYVDTEGKKISDDVVKSGNVGEDYSTDQKTILGYRFKEVQGNTSGKFTDKTQVVTYIYT”, the “soluble fraction (log2)” value came out at 0.404.

As to “HMNVEGEVVVPNVIGRTMKDVAVILSDLGLRMEAEGTGVAKSSQPQHGTSVKRGTVVQVRFEPLSVN”, the “soluble fraction (log2)” value was found to be 0.141. Consider “HMHNSPSPVATTILRFLQPVRAFVGDTEDMRTFGPFLREDVAMVPASQAKNLIRSGHAVEINP”, for which the “soluble fraction (log2)” value was -0.0361. Next, “HMEPLIRTLEEQIAEKIKNYRKGTRVYDAEHVDRWISQLPEEERMVVLTETNRLLEQNYVDQAKLME”: -0.107.
